Article PMC2806950, “Dissection of the DNA Mimicry of the Bacteriophage T7 Ocr Protein using Chemical Modification” (Journal of Molecular Biology, 2009)

What was measured:
Settings in all cases: both partners purified
[1] = target: T1, M.EcoKI, DNA methyltransferase component (M2S1) of the EcoKI type I R/M system (E. coli K12, UniProt P08957 1-529; P05719 1-464); assay: ITC; as the Tris experiment but 20 mM Hepes in place of Tris-HCl, 25 °C, no NaCl
T1 construct: M subunit (DNA methyltransferase activity) of the EcoKI type I R/M system of E. coli K12; also called methyltransferase core; copies: 2 + 1
T1 sequence (looked up) 1: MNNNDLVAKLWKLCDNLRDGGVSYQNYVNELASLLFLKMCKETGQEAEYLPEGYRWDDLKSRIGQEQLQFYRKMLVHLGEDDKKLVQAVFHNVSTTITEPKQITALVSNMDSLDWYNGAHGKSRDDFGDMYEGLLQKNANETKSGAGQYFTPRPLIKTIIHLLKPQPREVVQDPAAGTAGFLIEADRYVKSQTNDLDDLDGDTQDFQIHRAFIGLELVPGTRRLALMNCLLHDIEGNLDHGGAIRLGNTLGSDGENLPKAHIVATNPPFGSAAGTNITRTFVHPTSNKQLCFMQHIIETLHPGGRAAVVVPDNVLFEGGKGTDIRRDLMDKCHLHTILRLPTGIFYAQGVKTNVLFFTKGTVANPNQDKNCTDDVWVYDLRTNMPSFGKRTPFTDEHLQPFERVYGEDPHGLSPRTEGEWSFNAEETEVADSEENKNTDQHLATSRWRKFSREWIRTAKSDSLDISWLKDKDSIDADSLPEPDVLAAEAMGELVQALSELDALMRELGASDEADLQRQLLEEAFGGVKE
T1 sequence (looked up) 2: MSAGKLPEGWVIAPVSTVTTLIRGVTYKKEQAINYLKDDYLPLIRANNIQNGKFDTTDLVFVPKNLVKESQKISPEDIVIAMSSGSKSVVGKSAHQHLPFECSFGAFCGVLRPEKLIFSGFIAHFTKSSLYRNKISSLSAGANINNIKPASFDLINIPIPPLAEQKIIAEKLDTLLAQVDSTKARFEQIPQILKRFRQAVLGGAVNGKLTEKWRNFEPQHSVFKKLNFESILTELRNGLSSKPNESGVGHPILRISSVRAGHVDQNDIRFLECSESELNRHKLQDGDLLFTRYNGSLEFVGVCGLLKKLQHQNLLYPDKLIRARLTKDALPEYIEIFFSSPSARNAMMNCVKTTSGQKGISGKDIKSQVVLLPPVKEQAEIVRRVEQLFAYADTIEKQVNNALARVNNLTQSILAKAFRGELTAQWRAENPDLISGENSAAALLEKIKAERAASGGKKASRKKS

[2] = target: T1, M.EcoKI, DNA methyltransferase …; assay: fluorescence polarisation; competition with DNA: M.EcoKI titrated into 50 nM Ocr and 2 nM of a 21-bp DNA duplex fluorescently labelled at the 5' end; anisotropy of the DNA monitored
[3] = target: T1, M.EcoKI, DNA methyltransferase …; assay: ITC; Ocr (typically 40 uM) titrated into M.EcoKI (4 uM); 20 mM Tris-HCl pH 8.0, 6 mM MgCl2, 7 mM 2-mercaptoethanol, 100 uM SAM, with or without 500 mM NaCl; 10 to 30 °C

B1: Ocr (overcome classical restriction) protein of bacteriophage T7, unmodified (natural protein, UniProt P03775 1-117, looked up)
chain: MAMSNMTYNNVFDHAYEMLKENIRYDDIRDTDDLHDAIHMAADNAVPHYYADIFSVMASEGIDLEFEDSGLMPDTKDVIRILQARIYEQLTIDLWEDAEDLLNEYLEEVEEYEEDEE
notes: Ocr, product of gene 0.3 of bacteriophage T7; 116-amino-acid monomer as printed; Homodimer; also called WT; wild type Ocr; source: plasmid pAR2993 with the gene encoding WT Ocr
[1]
  dH: -21.5 kcal/mol
[2]
  Kd: 44 pM
[3]
  dH: -20.6 kcal/mol
  stoichiometry N: 1 Ocr dimer per molecule of M.EcoKI
